For 1 protein, Km results are on record in patent US7132278B2, “PAS kinase” (Board of Regents, The University of Texas System, priority 2001, dated 2006).

Substrate in this series: Nc1ncnc2c1ncn2[C@@H]1O[C@H](COP(=O)(O)OP(=O)(O)OP(=O)(O)O)[C@@H](O)[C@H]1O
Put plainly: PASK kinase activity (phosphorylation of AMARA peptide), ATP kinetics. The format is biochemical, human. To be noted: other: HTS kinase assay, AMARA peptide substrate, Tris-HCl pH 7.5, 10 mM MgCl2, room temperature. On the procedure: Biochemical properties of the Pask enzyme. A recombinant baculovirus was engineered to overexpress human PASK enzyme in cultured insect cells. The enzyme was expressed as a fusion with a His6 tag at its amino terminus such that the recombinant polypeptide could be purified by Ni-affinity chromatography. Routine enzyme preparations were harvested from 0.8 liter of cultured Sf-9 cells. Cells were lysed by dounce homogenization in 50 mM Tris-HCl, pH 8.0, 100 mM NaCl, 0.04% β-mercaptoethanol (“lysis buffer”) and spun at 100,000×G for one hour to remove insoluble debris. Soluble material (˜50 ml) was then applied to a 3 ml bed volume of Ni-affinity resin. Following application and 50× column volume wash, bound material was eluted with storage buffer (50 mM HEPES, pH 7.4, 100 mM NaCl, 1 mM DTT, 1 mM EDTA) supplemented with 250 mM imidazole. Eluted material was sequentially subjected to Mono-Q, anion-exchange chromatography, and eluted with increasing NaCl concentration. Fractions were evaluated by SDS-PAGE to identify PASK enriched fractions, pooled and dialyzed against storage buffer supplemented with 10% glycerol. Typical enzyme preparations yield 0.5 mg of intact PASK enzyme judged to be greater than 95% pure by visual inspection of Coomassie-stained SDS-PAGE gels.

B1: human PASK (PAS-kinase), wild type, SEQ ID NO:2 (Homo sapiens) (protein)
chain: MEDGGLTAFEEDQRCLSQSLPLPVSAEGPAAQTTAEPSRSFSSAHRHLSRRNGLSRLCQSRTALSEDRWSSYCLSSLAAQNICTSKLHCPAAPEHTDPSEPRGSVSCCSLLRGLSSGWSSPLLPAPVCNPNKAIFTVDAKTTEILVANDKACGLLGYSSQDLIGQKLTQFFLRSDSDVVEALSEEHMEADGHAAVVFGTVVDIISRSGEKIPVSVWMKRMRQERRLCCVVVLEPVERVSTWVAFQSDGTVTSCDSLFAHLHGYVSGEDVAGQHITDLIPSVQLPPSGQHIPKNLKIQRSVGRARDGTTFPLSLKLKSQPSSEEATTGEAAPVSGYRASVWVFCTISGLITLLPDGTIHGINHSFALTLFGYGKTELLGKNITFLIPGFYSYMDLAYNSSLQLPDLASCLDVGNESGCGERTLDPWQGQDPAEGGQDPRINVVLAGGHVVPRDEIRKLMESQDIFTGTQTELIAGGQLLSCLSPQPAPGVDNVPEGSLPVHGEQALPKDQQITALGREEPVAIESPGQDLLGESRSEPVDVKPFASCEDSEAPVPAEDGGSDAGMCGLCQKAQLERMGVSGPSGSDLWAGAAVAKPQAKGQLAGGSLLMHCPCYGSEWGLWWRSQDLAPSPSGMAGLSFGTPTLDEPWLGVENDREELQTCLIKEQLSQLSLAGALDVPHAELVPTECQAVTAPVSSCDLGGRDLCGGCTGSSSACYALATDLPGGLEAVEAQEVDVNSFSWNLKELFFSDQTDQTSSNCSCATSELRETPSSLAVGSDPDVGSLQEQGSCVLDDRELLLLTGTCVDLGQGRRFRESCVGHDPTEPLEVCLVSSEHYAASDRESPGHVPSTLDAGPEDTCPSAEEPRLNVQVTSTPVIVMRGAAGLQREIQEGAYSGSCHHRDGLRLSIQFEVRRVELQGPTPLFCCWLVKDLLHSQRDSAARTRLFLASLPGSTHSTAAELTGPSLVEVLRARPWFEEPPKAVELEGLAACEGEYSQKYSTMSPLGSGAFGFVWTAVDKEKNKEVVVKFIKKEKVLEDCWIEDPKLGKVTLEIAILSRVEHANIIKVLDIFENQGFFQLVMEKHGSGLDLFAFIDRHPRLDEPLASYIFRQLVSAVGYLRLKDIIHRDIKDENIVIAEDFTIKLIDFGSAAYLERGKLFYTFCGTIEYCAPEVLMGNPYRGPELEMWSLGVTLYTLVFEENPFCELEETVEAAIHPPYLVSKELMSLVSGLLQPVPERRTTLEKLVTDPWVTQPVNLADYTWEEVCRVNKPESGVLSAASLEMGNRSLSDVAQAQELCGGPVPGEAPNGQGCLHPGDPRLLTS
What is called Km is the concentration of substrate that gives half-maximal velocity. Take B1: the Km was found to be 2500 µM.
